The record followed here is patent US12606635B2, “Glypican-2-binding moieties, chimeric antigen receptors and uses thereof” (Nanjing Legend Biotech Co., Ltd., priority 2020, dated 2026).

In data set [1] the test system is human neuroblastoma cell line IMR-32. The data set can be described thus: In vitro cytotoxicity assay (LDH), IMR-32. The format is cell-based. The note with it: 1:1 effector to target ratio, FIG. 8B. As for the experimental part:
The pre-activated T cells were transduced with lentivirus stock in the presence of […] polybrene and 300 IU/mL IL-2. T cells and lentivirus were centrifuged at 1000 g, 32° C. for 1 h and placed in humidified cell culture incubator for transgene expression under suitable conditions. On day 5 or day 7 or day 10 post-transduction, transduced T cells were harvested and co-incubated with tumor cells at an effector (CAR T) to target cell ratio of 10:1 or 5:1 or 2:1 or 1:1 or 0.2:1 for 20 hours. Target cells were human neuroblastoma cell line SH-SY5Y (ATCC, #CRL-2266), human neuroblastoma cell line IMR-32 cells (ATCC, #CCL-127), or human epidermoid carcinoma cell line A-431 (ATCC, #CRL-1555). To assay the cytotoxicity of CAR T cells on tumor cells, the Cytotoxicity Detection Kit (LDH) (Roche, #11644793001) assay reagents were prepared according to manufacturer's protocol. Reaction mix was added to the cell-free supernatant of each sample to detect the LDH released from cells. Optical densities at OD492 nm and OD650 nm were measured by PHERStar Microplate Reader. Baseline LDH released from the target cell in the absence of effector cells and effector cell in the absence of target cells were subtracted from the total LDH amount. The target maximum release was obtained by adding Triton-X100 at a final concentration of 1% to target cells in the absence of effector cells at the time when the cytotoxicity assays initiated. […] The specific cytotoxicity was calculated by the formula: % Target cell lysis=100*[(OD CAR T cell+Target cell)−(OD CAR T cell)−(OD Target cell)+(OD Buffer background)]/(OD Target Maximum release−OD Target Minimum release).
(§1) On day 5 or day 8 or day 10 post-transduction, transduced T cells were harvested and co-incubated with tumor cells at an effector (CAR T) to target cell ratio of 10:1 or 1:1 or 0.2:1 for 20 hours. To assay the cytotoxicity of CAR T cells on tumor cells, the Cytotoxicity Detection Kit (LDH) (Roche, #11644793001) was added to the culture supernatant and the specific cytotoxicity for each CAR T cell construct was measured as described in Example 6.

Another data set relates to SH-SY5Y. The data set can be described thus: IFNγ release in co-culture with SH-SY5Y. The class given is cell-based, human. The note with it: Example 7, co-culture with SH-SY5Y, FIG. 8D-8F. From the text:
(§2) In addition to the cytotoxicity data above, supernatants from the in vitro co-culture assays were also collected to assess CAR T cells-induced cytokine release, e.g., release of interferon gamma (i.e., IFNγ), as another indicator of cytotoxicity, was quantified using a HTRF human IFNγ AlphaLISA kit (Perkin Elmer, #62HIFNGPEH) per manufacturer's instruction. […] No significant cytokine release were detected against GPC2-negative cell line A-431.
(§3) Supernatants from the in vitro co-culture assays were collected to assess CAR T cells-induced cytokine release, e.g., interferon gamma (i.e., IFNγ) release as described in Example 6. […] IFNγ was not induced in GPC2-negative A-431 cells. […] Cytokine release data was consistent with the in vitro cytotoxicity data.

A further data set relates to IMR-32. Kind of data set: IFNγ release in co-culture with IMR-32. The class given is cell-based, human. The note with it: Example 7, co-culture with IMR-32, FIG. 8D-8F.
Source text: as §2, §3

The test system of data set [2] is human neuroblastoma cell line SH-SY5Y. The data set can be described thus: In vitro cytotoxicity assay (LDH), SH-SY5Y. The conditions noted are these: 1:1 effector to target ratio, FIG. 8B. The class given is cell-based. As for the experimental part: The pre-activated T cells were transduced with lentivirus stock in the presence of […] polybrene and 300 IU/mL IL-2. T cells and lentivirus were centrifuged at 1000 g, 32° C. for 1 h and placed in humidified cell culture incubator for transgene expression under suitable conditions. On day 5 or day 7 or day 10 post-transduction, transduced T cells were harvested and co-incubated with tumor cells at an effector (CAR T) to target cell ratio of 10:1 or 5:1 or 2:1 or 1:1 or 0.2:1 for 20 hours. Target cells were human neuroblastoma cell line SH-SY5Y (ATCC, #CRL-2266), human neuroblastoma cell line IMR-32 cells (ATCC, #CCL-127), or human epidermoid carcinoma cell line A-431 (ATCC, #CRL-1555). To assay the cytotoxicity of CAR T cells on tumor cells, the Cytotoxicity Detection Kit (LDH) (Roche, #11644793001) assay reagents were prepared according to manufacturer's protocol. Reaction mix was added to the cell-free supernatant of each sample to detect the LDH released from cells. Optical densities at OD492 nm and OD650 nm were measured by PHERStar Microplate Reader. Baseline LDH released from the target cell in the absence of effector cells and effector cell in the absence of target cells were subtracted from the total LDH amount. The target maximum release was obtained by adding Triton-X100 at a final concentration of 1% to target cells in the absence of effector cells at the time when the cytotoxicity assays initiated. Supernatant from target cells in the absence of effector cells was used for target minimum release. The specific cytotoxicity was calculated by the formula: % Target cell lysis=100*[(OD CAR T cell+Target cell)−(OD CAR T cell)−(OD Target cell)+(OD Buffer background)]/(OD Target Maximum release−OD Target Minimum release).
as §1

B1: CAS71529VH5-BBz: humanized VHH anti-GPC2 CAR (4-1BB, CD3ζ), SEQ ID NO: 222; tested as CAR T cells (protein)
chain: MALPVTALLLPLALLLHAARPEVQLVESGGGLVQPGGSLRLSCAVSEYRYSSRYCMGWFRQAPGKGLEGVSAIDSNGSADYVDSVKGRFTISKDNSKNTLYLQMNSLRAEDTAVYYCAADHLAYDCYSGATSVFRYWGQGTLVTVSSTTTPAPRPPTPAPTIASQPLSLRPEACRPAAGGAVHTRGLDFACDIYIWAPLAGTCGVLLLSLVITLYCKRGRKKLLYIFKQPFMRPVQTTQEEDGCSCRFPEEEEGGCELRVKFSRSADAPAYKQGQNQLYNELNLGRREEYDVLDKRRGRDPEMGGKPRRKNPQEGLYNELQKDKMAEAYSEIGMKGERRRGKGHDGLYQGLSTATKDTYDALHMQALPPR
modifications: expressed in CAR T cells; CAS71529VH5-BBz
In the case of B1, in data set [1], the “cytotoxicity against IMR-32” value was “less than 30%”. Further, the IFNγ release result with SH-SY5Y and in the data set with IMR-32 was “high levels of IFNγ” throughout. Also, the “cytotoxicity against SH-SY5Y” value in data set [2] was “less than 30%”.
